From the nanobody polyreactivity screen of Harvey et al. (2022)

Assay: yeast display, Sf9 membrane polyspecificity reagent, FACS + sequencing; frameworks hold sequencing errors
Outline: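 Nanobodies came from a synthetic yeast display library in Saccharomyces cerevisiae BJ5465, induced with galactose for 36–48 hours and stained for 1 hour at 4 °C with 10% biotinylated, detergent-solubilized Sf9 membrane reagent. Cells were enriched on streptavidin microbeads and then FACS-sorted, with low and high (top ~1%) gates set on anti-HA fluorescence for expression and streptavidin fluorescence for reagent binding. Each polyreactivity label reflects the gate a clone came from. Genes were amplified by colony PCR, sequenced by MiSeq 2 × 250 and filtered by CDR length.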

| Sequence | polyreactivity (PSR sort gate) |
| --- | --- |
| QVQLVESGGGLVQAGGSLRLSCAASGFTFDSYAMGWYRQAPGKERELVAAITSSGGRTYYADSVKGRFTISRDNAKNTVYLQMNSLKPEDTSVYYCAARAISNFGYWGQGTQVTVSS | high polyreactivity |
| QVQIVESGGGLVQAGGSLRLSCAASGSIFRYYAMAWYRQETGKERELVARISSGVSTNYADSVKGRFTISRDNAKNSVYLQMNSLKPEDTAVYYCNARTGWTGRGRYSLRYDYWGQGTQVTVSS | high polyreactivity |
| QVQLVESGGGLVQAGGSLRLSCAASGITLYRYVMGWYRQAPGKERELLADISGRGTSTYYADSVKGRFTISRDNAKNTVYLQMNSLNAEDTAVYYCNAEFTKSGALVIPYTYYYAEDYWGQGSQVTVSS | low polyreactivity |
| QVQLVESGGGLVQAGGSLRLSCAASGFNFRYNAMGWYRQAPGKERELVAGISGGGTHYADSVKGRFTISRDNAKNTVYLQMNSLKPEDTAVYYCARRGGYRRNTNFYYWGQGTQVTVSS | high polyreactivity |
| QVQRVESGGGLVQARASLRLSCAASGSIFPHYAMGWYRQAPGKERDLVATIRSRSGSTYYADSVKGRFTISRDNAKNTVYLQMNSLKPEDTAVYYCAARYYKERYWGQGTQVTVSS | low polyreactivity |
| QVQLVESGGGLVQAGGSLRLSCAASGFIIKFYAMGWYRQAPGKERELVATITFSSGTTYYADSVKGRFTISRDNAKNTVYLQMNSLKPEDTAVYYCAASTLPAWPYDGPAGPRYDYWGQGTQVTVSS | low polyreactivity |
| QVQLVESGGGLVQAGGSLRLSCAASGLIFKSYAMGWYRQAPGKERELVATISSSGSTNYADSVKGRFTISRDNAKNTVYLQMNSLKPEDTAVYYCNADDEVWWWIYDYWGQGTQVTVSS | low polyreactivity |
| QVQLVESGGGLVQAGGSLRLTCAASGSIFDRNAMGWYRQAPGTERELVAAITYRSGGTYYADSVKGRFTISRDNAKNTVYLQMNSLKPEDTSVYYCNKGYRRYKGYDYWGQGTQVTVSS | high polyreactivity |
| QVQLGESGGGLVQAGGTLRLSCAAYGFIFGIYDMGSYRQAPGKERELVAAITWDGDTTYYADSVKGRFTISRDNAKNTVYLQMNSLKPEDTAVFYCAVDDSRAYPRPYHWVEYYYWGQGTQVTVSS | low polyreactivity |
| QVQLVESGGGLVQAGGSLRLSCAASGSTFLRYAMGWYRQAPGKERELVATISRSDDGTYYADSVKGRFTISRDNAKNTVYLQMNSLKPEDTAVYYCAARSWYLYYYWGQGTQVTVSS | low polyreactivity |
| QVQLVESGGGLVQAGGILRLSCAASGRITFSHNTMGWYIQAPGKERELVAAISSGGRTNYADSVKGRFTISRDNAKNTVYLQMNSLKPEDTAVYYCARESHYDFIYDGMDYWGQGTQVTVSS | low polyreactivity |
| QVQLVESGGGLVQAGGSLRLSCAASGRTFNFNTMGWYRQSPGKERELVASITSGGSTNYADSVKGRFTISRDNAKNTVYIQMNILKPEDTAVYYFAVTVSGPYAYDYWGQGTQVTVSS | low polyreactivity |
| QVQLVESGGGLVQAGGSLSLSCAASGRTFGLNVMGWYRQAPGKERELVATISGVGSTNYADSVKWRFTISRDNAKNTVYLQMNSLKPEDTAVYYCAKDPHVGRWWDLYSPYYSWGQGTQVTVSS | low polyreactivity |
| QVQLVESGGGLLKAGRSLRLSCAASGRIFGYYAMGWYRQAPGKERELVAAISTGGGRTYYADSVKGRFTISRDNAKNTVYLQMNSLKPEDTAVYYCAARLKWGWPTYDYWGQGTQVTVSS | high polyreactivity |
| QVQLVESGGGLVQAGGSLRLSCAASGLTFASYAMGWYRQAPGKERELVAAISSSGRTYYADSVKGRFTISRDNAKNTVYLQMNSLKPEDTAVYYCATRGLSRYYDYYYWGQGTQVTVSS | high polyreactivity |
| QVHLVESGGGLVQAGGSLRLSCAASGFIFHLNSMGWYRQAPGTERELVAAFSWNGGSTFYADSVKGRFTISRDNAKNTVYLQMNSLKPEDTAVYYCNADFRPAYTYDYWGQGTQVTVSS | low polyreactivity |

| Sequence | polyreactivity (PSR sort gate) |
| --- | --- |
| QVQLVESGGGLVQAGCSLRISSAASGRIFAVKAMGWYRQAPGKDRELVAAITNVGSTNYADSVKGRFTISRDNAKNTVYLQMNSLKPEDTAVYYCNADLAQEDWKMDYWGQGTQVTVSS | low polyreactivity |
| QDQLVESGGGLVQAGGSLRLSCAASGPIFRSYAMGWYRQAPGKEMELVAAISRSGGSTYYADSVKGRFSISRDNAKNSVYLHMNSLKPEDSAVYYCAADYILLGGRRKFDSWGQGTQVTVSS | low polyreactivity |
| QVQLVESGGGLVQAGGSLRLSCAASGFIFSRNVMGWYRQAPGKERELVAAISRSGGSTYYADSVKGRFTISRDNAKNTVYLQMNSLKPEDTAVYYCAASRINYVYLLKGDYWGQGTQVTVSS | high polyreactivity |
| QVQLVESGGGLVQAGGTLRLSCAASGSTFGPNAMGWYRQAPGKEREVVATIRGSGATTYYADSVKGRFTISRDNAKNTVYLQMNSLKPEDSAVYYCDTAYFSGWYNRYGRATSYDYWGQGTEVTVSS | high polyreactivity |
| QVQLVESGGGLVQAGGSLRLSCAASGSIVRFYAMGWYRQAPGKERELVASITSGGSTNYADSVKGRFTISRDNAKNTVYLQMNSLKPEDTAVYYCAVRLKGYRRRDYWGQGTQVTVSS | high polyreactivity |
| QVQLVESGGGLVQAGGSLRLSCAASGSIFFSNDMGWYRQAPGKERELVASITRDGTSTYADSVKGRFTISRDNAKNTVYLQMNSLKPEETAVYYCAADRYLQGFYGRWHGYDSWGQGTQVTVSS | low polyreactivity |
| QVQLVESGGGLVQAGGSLRLSCAASGSTFRNAMGWYRQAPGKERELVAAISYSGGRTYYADSVKGRFTISRDNAKNTVYLQMNSLKPEDTAVYYCASPGVSWSTRSYYYWGQGTQVTVSS | high polyreactivity |
| QVQLLETGGGLVQAGGSLRLSCAPSGFTIYRYAMGWYKQAPGKERELVAAISSGTSTYYADTVKGRFTISRDNAKKTVYLQINSLKPEVTEVYYCAVAGVSLYGTLYDYWGLGTQVTVSS | high polyreactivity |
| QVQLVESGGGLVQAGGSLRLSCAASGSTFAYYVMGWYRQAPGKERELVAAITSSGGRTYYADSVKGRFTISRDNAKNTVYLQMNSQKPEDTAVYYCAKVSQRRVDNSDYDYWGQGTQVTVSS | high polyreactivity |
| QVQHVESGGGLVQAGGSLRLSCAASGSTITANAMGWYRQAPGKERELVPAISDTTGNTYYADSVMGRFTISRDNANNTVYLQMNSLKPEDTAVYYCAADLTSYYGGDYWGQGTQVTVSS | low polyreactivity |
| QVQLVESGGGLVQAGGSLRLSCAASGFTFTDYTMGWYIQAPGTEREFVAAISYRGSNTYYADSVKGRFTISRDNAKNTVYLQMNSLKPLDTAVYYCAADSYRYKYNYWGQGTQVTVSS | high polyreactivity |
| QVQLLESGGGLVQAGGSLRLSCAASGRIFSRYAMGWYRQAPGKERELVASISWSGDGTYYADSVKGRFTISRDNAKNTVYLQMNSLKPEDTAVYYCAAAPWDAPWSGYEYWGQGTEVTVSS | high polyreactivity |
| QVHLVESGGGLVQAGGSLRLSCAASGSIFHKNAMGWYRQAPGKERELVAAITSGGTTYYADSVKGRFTISRDNAKNTVYLLMNSLKPEDTAVYYCNAAKFLYRHGFLSAGDMYYWGQGTQVTVSS | high polyreactivity |
| QVQLVESGGGLVQAGGSLRLSCAASGSIFLVYALGWYRQAPGKERELVATITRGGGTYYADSVKGRFTISGDNAKNTVYLQMNSLKPEDTAVSYCAYPLSRTWGNYLAWSYPRDDSWGQGTQVTVSS | high polyreactivity |
| QVQHVESGGGLVQAGGSLRLSCAASIRIFRYYAMGRSRQGPGKEREVVASSRSASSTYYADSVKGRFTISRDNAKNPVYLQMNSLKAEDTAVYYCNAVSPLSIWSSRDGWYGYWGQGTQVTVSS | high polyreactivity |
